Columns and labels:
[1] = molecular target: TRP-185 (cellular TAR RNA binding protein, about 185 kD) (Homo sapiens) (UniProt Q13395); test: EMSA
[2] = molecular target: Tat (wild-type) (HIV-1) (UniProt P04608); test: EMSA; conditions: printed as Ka of 6.4x10^-10 M; Scatchard, one tat per TAR RNA

Chain of TRP-185 (cellular TAR RNA binding protein, about 185 kD) (Homo sapiens) (Q13395 whole entry): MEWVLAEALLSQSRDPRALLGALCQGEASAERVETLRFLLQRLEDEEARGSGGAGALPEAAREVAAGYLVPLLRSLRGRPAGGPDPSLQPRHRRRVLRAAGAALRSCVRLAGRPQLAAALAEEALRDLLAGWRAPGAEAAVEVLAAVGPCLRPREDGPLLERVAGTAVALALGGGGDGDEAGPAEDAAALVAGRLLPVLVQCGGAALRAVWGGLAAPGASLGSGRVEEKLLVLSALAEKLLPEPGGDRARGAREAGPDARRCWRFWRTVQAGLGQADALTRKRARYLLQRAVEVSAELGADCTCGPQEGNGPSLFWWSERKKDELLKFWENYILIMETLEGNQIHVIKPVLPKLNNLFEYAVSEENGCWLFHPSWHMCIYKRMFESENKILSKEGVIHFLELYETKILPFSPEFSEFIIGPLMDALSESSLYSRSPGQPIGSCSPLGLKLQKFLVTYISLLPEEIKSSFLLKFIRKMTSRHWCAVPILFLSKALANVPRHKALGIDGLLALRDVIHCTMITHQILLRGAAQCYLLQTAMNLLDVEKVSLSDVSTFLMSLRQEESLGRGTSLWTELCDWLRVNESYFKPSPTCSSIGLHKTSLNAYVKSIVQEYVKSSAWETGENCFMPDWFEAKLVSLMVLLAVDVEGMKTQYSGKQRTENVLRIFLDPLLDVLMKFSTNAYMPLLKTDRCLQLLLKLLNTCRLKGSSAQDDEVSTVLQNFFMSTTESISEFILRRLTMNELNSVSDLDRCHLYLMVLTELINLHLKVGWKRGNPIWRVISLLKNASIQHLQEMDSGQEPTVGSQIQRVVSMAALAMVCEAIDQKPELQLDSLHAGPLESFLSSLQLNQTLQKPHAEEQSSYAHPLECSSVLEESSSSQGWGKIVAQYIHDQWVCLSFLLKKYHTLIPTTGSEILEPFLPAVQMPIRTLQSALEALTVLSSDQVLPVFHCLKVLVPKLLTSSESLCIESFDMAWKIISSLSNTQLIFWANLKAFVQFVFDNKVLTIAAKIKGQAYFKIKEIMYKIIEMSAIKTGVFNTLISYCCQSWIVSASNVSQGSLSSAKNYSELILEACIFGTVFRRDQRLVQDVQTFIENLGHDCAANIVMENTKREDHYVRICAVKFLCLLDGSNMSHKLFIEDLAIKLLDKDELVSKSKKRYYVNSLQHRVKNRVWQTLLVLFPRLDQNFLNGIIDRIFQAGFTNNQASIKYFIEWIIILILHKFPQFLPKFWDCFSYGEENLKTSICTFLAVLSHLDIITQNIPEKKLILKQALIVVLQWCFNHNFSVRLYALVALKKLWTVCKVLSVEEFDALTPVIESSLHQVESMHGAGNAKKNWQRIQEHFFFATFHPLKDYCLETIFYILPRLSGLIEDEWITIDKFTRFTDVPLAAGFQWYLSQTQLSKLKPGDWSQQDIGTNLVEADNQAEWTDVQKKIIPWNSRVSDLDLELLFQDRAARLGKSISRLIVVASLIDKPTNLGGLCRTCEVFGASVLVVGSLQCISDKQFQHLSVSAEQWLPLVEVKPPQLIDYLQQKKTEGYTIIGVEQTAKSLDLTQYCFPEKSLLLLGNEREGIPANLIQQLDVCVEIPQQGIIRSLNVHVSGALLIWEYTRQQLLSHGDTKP

## HIV TAR RNA wild-type (+1/+80)
[1]; Scatchard, cofactor fraction required with sucrose gradient TRP-185, room temperature, 50 mM KCl
  Kd: 0.315 nM
[2]
  Kd: 0.64 nM

## nonspecific RNA
[1]; data not shown
  Kd: 21100 nM

From patent publication US5677143
